This experiment deals with T1, Human NKp46 recombinant proteins (human, UniProt O76036 22-258).
T1 construct: also called recombinant human NKp46 proteins
The experiment in a line: SPR, bispecific captured on Protein-A chip. Here is the method: SPR measurements were performed on a Biacore T100 apparatus (Biacore GE Healthcare) at 25° C. In all Biacore experiments HBS-EP+(Biacore GE Healthcare) and NaOH 10 mM served as running buffer and regeneration buffer respectively. Sensorgrams were analyzed with Biacore T100 Evaluation software. Protein-A was purchase from (GE Healthcare). Human NKp46 recombinant proteins were cloned, produced and purified at Innate Pharma.
Protein-A proteins were immobilized covalently to carboxyl groups in the dextran layer on a Sensor Chip CM5. The chip surface was activated with EDC/NHS (N-ethyl-N′-(3-dimethylaminopropyl) carbodiimidehydrochloride and N-hydroxysuccinimide (Biacore GE Healthcare)). Protein-A was diluted to 10 μg/ml in coupling buffer (10 mM acetate, pH 5.6) and injected until the appropriate immobilization level was reached (i.e. 2000 RU). Deactivation of the remaining activated groups was performed using 100 mM ethanolamine pH 8 (Biacore GE Healthcare).
On the technique in general: In SPR one partner is held on a chip, and binding of the other changes the refractive index at the surface.

B1: CD19-F2-NKp46-3 (bispecific antibody)
chain 1: DIQLTQSPASLAVSLGQRATISCKASQSVDYDGDSYLNWYQQIPGQPPKLLIYDASNLVSGIPPRFSGSGSGTDFTLNIHPVEKVDAATYHCQQSTEDPWTFGGGTKLEIKGGGGSGGGGSGGGGSQVQLQQSGAELVRPGSSVKISCKASGYAFSSYWMNWVKQRPGQGLEWIGQIWPGDGDTNYNGKFKGKATLTADESSSTAYMQLSSLASEDSAVYFCARRETTTVGRYYYAMDYWGQGTTVTVSSGGGSSAPELLGGPSVFLFPPKPKDTLMISRTPEVTCVVVDVSHEDPEVKFNWYVDGVEVHNAKTKPREEQYNSTYRVVSVLTVLHQDWLNGKEYKCKVSNKALPAPIEKTISKAKGQPREPQVYTKPPSREEMTKNQVSLSCLVKGFYPSDIAVEWESNGQPENNYKTTVPVLDSDGSFRLASYLTVDKSRWQQGNVFSCSVMHEALHNHYTQKSLSLSPGSTGSEVQLQQSGPELVKPGASVKISCKTSGYTFTEYTMHWVKQSHGKSLEWIGGISPNIGGTSYNQKFKGKATLTVDKSSSTAYMELRSLTSEDSAVYYCARRGGSFDYWGQGTTLTVSSASTKGPSVFPLAPSSKSTSGGTAALGCLVKDYFPEPVTVSWNSGALTSGVHTFPAVLQSSGLYSLSSVVTVPSSSLGTQTYICNVNHKPSNTKVDKRVEPKSCDKTH
chain 2: DIVMTQSPATLSVTPGDRVSLSCRASQSISDYLHWYQQKSHESPRLLIKYASQSISGIPSRFSGSGSGSDFTLSINSVEPEDVGVYYCQNGHSFPLTFGAGTKLELKRTVAAPSVFIFPPSDEQLKSGTASVVCLLNNFYPREAKVQWKVDNALQSGNSQESVTEQDSKDSTYSLSSTLTLSKADYEKHKVYACEVTHQGLSSPVTKSFNRGEC
notes: Heterodimer with monomeric Fc; also called bi-specific antibody NKp46-3 (F2)
Consider B1, for which the binding result is given as “binds”.

These data come from patent US20240141042A1 (INNATE PHARMA, published 2024).
